# Publication PMC6682550
# Molecular target: 6xHis-tag M1 protein from Influenza A/FPV/Rostock/34, labelled with Alexa Fluor 488 (M1-Alexa488) (Influenza A virus A/FPV/Rostock/34) (UniProt P03487)
# Assay: […], pH 7.4, NaCl ~45 mM; […]
substance,measurement,value
"6xHis-tag M1 protein from Influenza A/FPV/Rostock/34, labelled with Alexa Fluor 488 (M1-Alexa488) (from UniProt P03487 1-252) (natural protein)",stoichiometry N,15
